According to patent US20030037355:

Legend:
[1] = molecular target: C7-VP64 three-finger activator (artificial) (UniProt P08046); assay: cell_activity; details: tobacco protoplasts, Reporter II pc7rbTATA; Reporter I 10 fold
[2] = system: SID-2C7 six-finger repressor (artificial); assay: cell_activity; details: tobacco protoplasts; almost 2 fold in maize
[3] = system: 2C7 six-finger zinc finger protein (artificial); details: CITED earlier work; cited from earlier work
[4] = system: e2c six-finger zinc finger protein (artificial); details: CITED Beerli et al. 1998; cited from earlier work

GCGTGGGCGGCGTGGGCG (double strand) [2C7 binding site (six tandem repeats in reporters)]
activity (fold activation) [1]: 100 | activity (fold repression) [2]: 5 | Kd [3]: 0.46 nM

e2c target site
Kd [4]: 0.5 nM
